From patent US20130252987A1, “METHOD OF REGULATING PLASMA LIPOPROTEINS” (MCMASTER UNIVERSITY, priority 2010, published 2013) come the findings set out here.

The subject of data set [1] is rat primary hepatocytes. The experiment in a line: cellular apoB100 protein expression in primary rat hepatocytes. The format is cell-based. The settings on record: 50 ng/mL, 24 hours. The protocol:
Primary Cells: Fresh wild-type rat and mouse primary heptaocytes were supplied by CellzDirect (Invitrogen, NC) in a 6-well collagen coated plate. Upon arrival, the storage media was removed and incubation media (Williams E Medium, phenol red free, with incubation supplement pack, Gibco, NC) was added according to manufactures' instructions. The cells were incubated at 37° C. with 5% CO2 for 16 hours prior to human resistin (50 ng/mL) treatment for 24 hours. Cryopreserved plateable human hepatocytes, metabolism qualified from multiple normal human donors, were supplied by CellzDirect (Invitrogen, NC). Upon arrival, the cells (4-8 million in 1 mL), according to the manufacturer's instruction, were added to 48 mL warmed thawing medium (CHRM® Medium, Invitrogen, NC) and centrifuged at 100×g for 10 min at room temperature. The pellet was re-suspended in 4 mL plating medium (Williams E Medium, phenol red free, with maintenance supplement pack and 10% FBS, Gibco, NC). The cells were stained by Trypan Blue (Sigma, Canada) and counted by a haemocytometer, followed by seeding 1×10^6 cells/well in a 6-well collagen coated plate (CellzDirect, Invitrogen, NC). The cells were incubated at 37° C. with 5% CO2 for 4 hours to allow the cells to adhere. The plating media was replaced and cell incubated for 16 hours prior to human resistin treatment for 24 hours. […]

The subject of data set [2] is HepG2 cells. Put plainly: cell viability, tryphan blue staining. In kind it is cell-based, human. The settings on record: 50 ng/mL or 100 ng/mL, 24 or 48 hours. The protocol: Cell viability was determined with 0.4% tryphan blue (Sigma-Aldrich, ON) staining and calculated using the following formula: % Cell Viability=(number of unstained (living) cells/Total number of cells)×100.
The next question was whether this amount of human resistin is toxic to hepatocytes. Tryphan blue staining of HepG2 cells upon 50 ng/mL of resistin treatment to determine cell viability was performed.

Data set [3] has as its system primary mouse hepatocytes from PCSK9 knockout mice. Put plainly: LDL receptor protein in PCSK9 knockout mouse hepatocytes. The settings on record: 50 ng/mL, 24 hours. The format is cell-based. The protocol: Animal ethics approval was received for the mouse protocols to follow. Primary mouse hepatocytes from PCSK9 knockout mice (C57Bl/6 background) or their wildtype littermates were isolated by perfusing the liver via the hepatic portal vein with a 5 mM EGTA in Leffert's Buffer (10 mM Hepes; 3 mM KCl, 0.13 M NaCl, 1 mM NaH2PO4, 10 mM D-glucose) followed by a 0.3 mg/ml collagenase in 0.0279% CaCl2. Cells were then filtered through a 70 uM nylon strainer and centrifuged at 760 rpm for 5 min. The cells were then passed through a CHRM gradient (Invitrogen, NC). Viability of cells ranged from 80 to 95%. […] Mouse LDL receptor and PCSK9 protein in cell lysates were measured via immunoblotting, as described above, using the following primary antibodies: mouse LDL receptor (abcam, MA), mouse PCSK9 (abcam, MA) and mouse GAPDH (Cell Signaling, MA). […]
To then more directly quantify the role of PCSK9 in the resistin mediated reduction in hepatocyte LDL receptor levels, hepatocytes isolated and cultured from wild-type mice were treated with resistin, and compared to resistin-treated hepatocytes from PCSK9 knockout mice.

B1: human resistin: recombinant lyophilized purified human resistin (Calbiochem); cysteine-rich cytokine, single 12 kDa band (protein)
chain: KTLCSMEEAINERIQEVAGSLIFRAISSIGLECQSVTSRGDLATCPRGFAVTGCTCGSACGSWDVRAETTCHCQCAGMDWTGARCCRVQP
As to B1, the “increase in cellular apoB protein expression versus untreated control cells” value in data set [1] is 40-50%. Also, in data set [2], the hepatocyte viability result is on record as “no marked reduction”. In data set [3], the “decline in LDL receptor expression compared to untreated hepatocytes” value is 15%.
